According to US20040071656A1, “Modulation of heat-shock-protein-based immunotherapies” (priority 2001, published 2004):

Experiments:
[1] = target: T1, exoplasmic domain of human CD40 (GST-CD40) (Homo sapiens, UniProt P25942); assay: GST-CD40 pull-down of endogenous heat shock proteins from Hela cell lysate; assay type: binding; details: 80 or 400 pmol GST-CD40, immunoblot
T1 construct: The cDNA for the exoplasmic domain of CD40 (amino acids 20-212); made in house; host or cells: E. coli, pGEX-2T
Method: Binding assays with GST-CD40. For binding of endogenous Hsp70 and Hsc70 from Hela cell lysate, Hela cells were lysed as described above and centrifuged at 100,000 g at 4° C. for 1 h. 20 μl bed volume of Glutathione Sepharose 4 Fast Flow (Amersham Pharmacia) per sample were preincubated with 80 pmol or 400 pmol of GST or GST-CD40 fusion protein in 50 μl binding buffer. Unbound protein was removed by washing three times with PBS. The beads were treated with 1% BSA/PBS to avoid non-specific binding, and than incubated with 150 μl of Hela cell lysate in the presence of 2 mM DTT for 20 min at 16° C. […] 10 μl of the eluates was subjected to SDS-PAGE and analyzed by immunoblotting using an anti-Hsc/Hsp70 antibody and an anti-Hsp90: antibody (SPA822 and SPA835, Stressgen). […]
(§1) Details for FIG. 3. […] Thereafter samples were affinity purified on glutathione-Sepharose as outlined in Experimental Procedures, subjected to SDS-PAGE and analyzed by immunoblotting with antibodies directed against Hsc70 and Hsp70 (upper lanes), and against Hsp90 (lower lanes). […] After affinity purification samples were analyzed by immunoblotting as described in A, using antibodies directed against the His6-tag. […] Protein bound to Hsp70 was analyzed by affinity purification on Ni-NTA-agarose and immunoblotting with antibodies directed against CD40.

[2] = target: T2, endogenous CD40 (Mus musculus, UniProt P27512); assay: Binding assay with His6-tagged Hsp70 and Ni-NTA-agarose, ANA1 cell lysate; parameters: species or system murine; details: His-tagged Hsp70, with or without ADP
T2 construct: endogenous CD40 in extracts of LPS-stimulated ANA1-cells; endogenous in cells; host or cells: ANA1 murine macrophage cell line, LPS-stimulated
T2 sequence (P27512 20-289): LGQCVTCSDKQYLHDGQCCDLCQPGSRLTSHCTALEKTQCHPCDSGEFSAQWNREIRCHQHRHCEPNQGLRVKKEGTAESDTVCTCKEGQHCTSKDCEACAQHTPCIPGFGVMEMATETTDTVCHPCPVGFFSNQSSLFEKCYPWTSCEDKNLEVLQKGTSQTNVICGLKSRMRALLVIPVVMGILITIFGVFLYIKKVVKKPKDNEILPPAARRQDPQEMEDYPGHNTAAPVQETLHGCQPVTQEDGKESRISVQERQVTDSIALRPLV
Method: Binding assay with His6-tagged Hsp70 and Ni-NTA-agarose. ANA1-cells were stimulated with LPS as described above and lysed in lysis buffer (150 mM Tris/HCl, ph 7,5, 1% CHAPS) for 45 min at 4° C. Cell lysate was centrifuged at 100,000 g for 15 min at 4° C. […] of the supernatant was incubated with 10 μg of His6-tagged Hsp70, preincubated with ADP and a 30-fold excess of peptide C, or mock treated, as described above for biotinylated proteins, for 30 min at 4° C. Thereafter the samples were added to 20 μl of 1% BSA-treated Ni-NTA-agarose (Quiagen) and incubated for 30 min at 4° C. Unbound protein was removed by washing the beads three times with 1 ml lysis buffer, and immobilized proteins eluted with 10 μl SDS-PAGE-sample buffer by incubation for 5 min at 95° C. Eluates were analyzed by immunoblotting using an anti-CD40 antibody (CSA-180, Stressgen).
as §1

T1 sequence (P25942 20-212): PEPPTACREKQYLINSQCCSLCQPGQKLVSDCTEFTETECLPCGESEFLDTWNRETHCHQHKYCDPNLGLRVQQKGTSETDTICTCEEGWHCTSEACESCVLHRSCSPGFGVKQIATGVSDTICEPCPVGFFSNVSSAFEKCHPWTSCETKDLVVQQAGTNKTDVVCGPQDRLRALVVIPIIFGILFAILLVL

interaction with endogenous CD40 in extracts of LPS-stimulated ANA1-cells [2]: interacted, in an ADP-dependent manner
Substance: Hsp70: Recombinant human heat shock protein 70, expressed and purified as His-tagged protein
binding to GST-CD40 from Hela-cell lysates [1]: bound to GST-CD40 in a concentration dependent manner
